Measured values reported in patent US20240409645A1 (DUALYX, published 2024).

T1: human IL-2Rβ (human, UniProt P14784 27-240, limits assumed)
T1 construct: recombinant protein, coated or immobilised; also called hu IL-2R; IL-2R beta
T1 sequence: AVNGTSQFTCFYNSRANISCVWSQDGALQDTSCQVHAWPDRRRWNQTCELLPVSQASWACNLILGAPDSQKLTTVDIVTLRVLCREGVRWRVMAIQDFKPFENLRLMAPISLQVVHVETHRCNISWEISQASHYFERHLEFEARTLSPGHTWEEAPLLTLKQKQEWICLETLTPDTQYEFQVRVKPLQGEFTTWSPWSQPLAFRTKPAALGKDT


Experiments:
human IL-2Rβ [1] = target: T1, human IL-2Rβ; assay: SPR, P.E. off-rate
Description: SPR was performed to determine dissociation rates using Biacore 3000 instrument (GE Healthcare). Briefly, human and mouse IL-2R proteins were immobilized on carboxylmethyl dextran sensor chip (CM5) at approximately 2500 RUs using amine coupling in acetate buffer (GE Healthcare). The VHH-containing P.E. were loaded with a flow rate of 30 uL/min and the off-rates were measured over a 120s period.

human IL-2Rβ [2] = target: T1, human IL-2Rβ; assay: P.E. ELISA, coated protein
Description: In a binding ELISA, human or mouse IL-2Rα, IL-2Rβ and IL-2Rγ proteins were coated directly on maxisorp microtiter plates overnight at 4° C. Free binding sites were blocked using 4% Marvel in PBS for 1 hour. Next, 1:5 dilution of P.E. in 1% Marvel/PBS were added to wells and incubated for 1 hour. […] Binding specificity was determined based on O.D. at 450 nm values compared to negative controls.

Row | Binder | koff (human IL-2Rβ [1]) [s⁻¹] | P.E. binding ELISA OD (human IL-2Rβ [2]) [OD450 nm]
1 | FJ1427_P035MP02E01 (VHH, soluble VHH in periplasmic extract; also called clone nr) VHH: EVQLVESGGGLVQIGGSLRLSCAASGRTFSSITMAYFRQVPGKEREWVAGINFSGTRTFYADSVKGRFLISRDDAKSTMYLQMNSLKPEDTAVYYCAASPRGFYGPGNALYDYWGQGTQVTVSS | 4.5e-05 | 1.11
2 | FJ1427 P035MP02E02 (VHH, soluble VHH in periplasmic extract; also called clone nr) VHH: EVQLVESGGGLVQTGGSLRLSCAASGSQFINDVMGWYRQVPGKQRELVADMDDTGSTKYADSVKGRFTILRDSVKNTAYLQMSNLKPEDTGVYYCKAGLWIKGRHSDYWGQGTQVTVSS | 0.000269 | 0.254
3 | FJ1427_P035MP02A05 (VHH, soluble VHH in periplasmic extract; also called clone nr) VHH: EVQLVESGGGLVQTGGSLRLSCAASGSQFINDVMGWYRQVPGKQRELVADMDDTGSTKYADSVKGRFTILRDSVKNTAYLQMSNLKPEDTGVYYCKAGLWIKGRHSDYWGQGTQVTVSS | 0.000444 | 0.263
4 | FJ1427 P035MP02F04 (VHH, soluble VHH in periplasmic extract; also called clone nr) VHH: EVQLVESGGGLVQTGGSLRLSCAASGSQFINDVMGWYRQVPGKQRELVADMDDTGSTKYADSVKGRFTILRDSVKNTAYLQMSNLKPEDTGVYYCKAGLWIKGRHFDYWGQGTQVTVSS | 0.000343 | 0.516
5 | FJ1427 P035MP02A04 (VHH, soluble VHH in periplasmic extract; also called clone nr) VHH: EVQLVESGGGLVQTGGSLRLSCTASGSQFINDVMGWYRQVPGKQRELVADMDDTGSTKYADSVNGRFTILRDSVKNTAYLQMSNLKPEDTGVYYCKAGLWIKGRHSDYWGQGTQVTVSS | 0.000368 | 0.533
6 | FJ1427_P035MP02B01 (VHH, soluble VHH in periplasmic extract; also called clone nr; 98) VHH: QVQLVESGGGLVQTGGSLRLSCAASGSQFINDVMGWYRQVPGKQRELVADMDDTGSTKYADSVKGRFTILRDSVKNTAYLQMSNLKPEDTGVYYCKAGLWIKGRHFDYWGQGTQVTVSS | 0.000119 | 0.271
7 | FJ1427 P035MP02D01 (VHH, soluble VHH in periplasmic extract; also called clone nr; 100) VHH: QVQLQESGGGLVQTGGSLRLSCAASGSQFINDVMGWYRQVPGKQRELVADMDDTGSTKYADSVKGRFTILRDSVKNTAYLQMSNLKPEDTGVYYCKAGLWIKGRHSDYWGQGTQVTVSS | 0.000167 | 0.573
8 | FJ1427 P035MP02C03 (VHH, soluble VHH in periplasmic extract; also called 14-MP02C03; clone nr) VHH: EVQLVESGGGLVQTGGSLRLSCAASGSQFINDVMGWYRQVPGKQRELVADMDDTGSTEYADSVKGRFTILRDSVKNTAYLQMSNLKPEDTGVYYCKAGLWIKGRHFDYWGQGTQVTVSS | 0.000714 | 0.183
9 | FJ1427 P035MP02G05 (VHH, soluble VHH in periplasmic extract; also called clone nr) VHH: EVQLVESGGGLVQTGGSLRLSCAASGSQFINDVTGWYRQVPGKQRELVADMDDTGSTKYADSVKGRFTILRDSVKNTAYLQMSNLKPEDTGVYYCKAGLWIKGRHSDYWGQGTQVTVSS | 0.000432 | 0.567
10 | FJ1427 P035MP02C05 (VHH, soluble VHH in periplasmic extract; also called clone nr) VHH: QVQLVESGGGLVQTGGSLRLSCAVSGSRFISDVMGWYRQVPGKQRELVADMADGGSAKYADSVKGRFSILRDSVKNTVYLQMSSLKPEDTGIYYCKAGLWIAGRHSDYWGQGTQVTVSS | 0.000346 | 0.237
11 | FJ1427_P035MP02B05 (VHH, soluble VHH in periplasmic extract; also called clone nr; 130) VHH: EVQLVESGGGLVQTGGSLRLSCAASGSQFINDVMGWYRQVPGKQRELVADMDDTGSTKYADSVKGRFTILRDSVKNTAYLQMSNLKPEDTGVYYCKAGLWIKGRHFDYWGQGTQVTVSS | 0.000292 | 0.553
12 | FJ1427 P035MP02H05 (VHH, soluble VHH in periplasmic extract; also called clone nr) VHH: EVQLVESGGGSVQTGGSLRLSCVVSGSHFISDVMGWYRQVPGKQRELVADMADGGSAKYGDSVKGRFTILRDSVKNTVTLQMSSLNPEDTGVYYCKAGLWITGRHSDYWGQGTQVTVTS | 0.000268 | 0.192
13 | FJ1427 P035MP02C01 (VHH, soluble VHH in periplasmic extract; also called clone nr; 99) VHH: QVQLVESGGGLVQPGGSLGLSCAASGFTFDNYAMSWVRQAPGKGLEWVSSITGAGRGTHYADSVKGRFTISRDNAKNTLYLQMNSLKPEDTAVYYCAKYSSSTYYPPTPARGTDYRGPGTQVTVSS | 0.000789 | 0.7
14 | FJ1427 P035MP02E06 (VHH, soluble VHH in periplasmic extract; also called 15-MP02E06; clone nr) VHH: QVQLVESGGGSVQPGGSLRLSCAASGFTFSNYAMSWVRQAPGKGLEWVASITGFGRGTDYADSVKGRFTISRDNAEDTLYLQMNSLKPEDTAVYYCAKYSSSTYYPPTPARGRDYRGQGTQVTVSS | 0.00169 | 0.581
15 | FJ1427 P035MP02D05 (VHH, soluble VHH in periplasmic extract; also called clone nr) VHH: QVQLVESGGGLVQPGESLGLSCAASGFTFSNYAMSWVRQAPGKGLEWVSSITGAGRGTDYADSVKGRFTISRDNAKNTLYLQMNSLKPEDTAVYYCAKYSSGTYYPPTPVRGTDYRGQGTQVTVSS | 0.00279 | 0.118
16 | FJ1427 P035MP02C06 (VHH, soluble VHH in periplasmic extract; also called clone nr) VHH: QLQLVESGGGLVQPGGSLELSCAASGFTFSNYAMSWVRQAPGKGLEWVSSITGFGRGTDYADSVKGRFTISRDNAKNTLYLQMNSLKPEDTAVYYCARYSSSTYYPPTPARGRDYRGQGTQVTVSS | 0.00217 | 0.351
17 | FJ1427_P035MP02A03 (VHH, soluble VHH in periplasmic extract; also called clone nr) VHH: QVQLVESGGGLVQPGGSLRLSCAASGFTFSNYAMSWVRQAPGKGLEWVSSITGAGRGTYYAESVKGRFTISRDNDKNTLYLQMNSLKPEDTAVYYCAKYDSSTFYPPTPARGIADRGQGTRVTVSS | 0.000571 | 0.207
18 | FJ1427_P035MP02A02 (VHH, soluble VHH in periplasmic extract; also called clone nr) VHH: QVQLVESGGGLVQPGGSLRLSCAASGFTFDNYAMTWVRQAPGKGLEWVSSITGAGRGTHYADSVKGRFTISRDNAKNTLYLQVNSLKPEDTAVYYCARYSSSTYYPTTPVRGTDYRGQGTQVTVSS | 0.00262 | 0.223

Second part, the binder after the results:

Row | koff (human IL-2Rβ [1]) [s⁻¹] | P.E. binding ELISA OD (human IL-2Rβ [2]) [OD450 nm] | Binder
19 | 0.00031 | 0.856 | FJ1427_P035MP02E05 (VHH, soluble VHH in periplasmic extract; also called clone nr) VHH: EVQLVESGGGLVQIGGSLRLSCAASGRTFSSITMAYFRQVPGKEHEWVAGINFSGTRTFYADSVKGRFLISRDDAKSTMYLQMNSLKPEDTAVYYCAASPRGFYGPGNALYDYWGQGTQVTVSS
20 | 0.0003 | 0.469 | FJ1427_P035MP02F01 (VHH, soluble VHH in periplasmic extract; also called clone nr) VHH: EVQLVESGGGLVQTGGSLRLSCAVSGSRFISDVMGWYRQVPGKQRELVADMADGGSAKYADSVKGRFSILRDSVKNTVYLQMSSLKPEDTGIYYCKAGLWIAGRHSDYWGQGTQVTVSS
21 | 0.000358 | 0.447 | FJ1427_P035MP02D04 (VHH, soluble VHH in periplasmic extract; also called clone nr) VHH: QVQLVESGGGLVQTGGSLRLSCAVSGSRFISDVMGWYRQVPGKQRELVADMADGGSAKYADSVKGRFSILRDSVKNTVYLQMSSLKPEDTGIYYCKAGLWIAGRHSDYWGQGTQVTVSS
22 | 0.000295 | 0.549 | FJ1427_P035MP02G04 (VHH, soluble VHH in periplasmic extract; also called clone nr) VHH: QVQLVESGGGLVQAGGSLRLSCAASGSQFINDVMGWYRQVPGKQRELVADMDDTGSTKYADSVKGRFTILRDSVKNTAYLQMSNLKPEDTGVYYCKAGLWIKGRHFDYWGQGTQVTVSS
23 | 0.000334 | 0.206 | FJ1427_P035MP02F05 (VHH, soluble VHH in periplasmic extract; also called clone nr) VHH: EVQLVESGGGLVQTGGSLRLSCAVSGSRFISDVMGWYRQVPGKQRELVADMADGGSAKYADSVKGRFSILRDSVKNTVYLQMSSLKPEDTGIYYCKAGLWIAGRHSDYWGQGTQVTVSS
24 | 0.000226 | 0.286 | FJ1427_P035MP02D03 (VHH, soluble VHH in periplasmic extract; also called clone nr) VHH: QVQLVESGGGLVQAGGPLRLSCAASGGTFSSYAMGWFRQAPGKEREFVAATTRGGGRTMYAVSTEGRFTCSRDNAKNTVYLLMNSLKPEDTAVYYCAAMTSYYSGTYYPDSSDFDIWGQGTQVTVSS
25 | 0.000716 | 0.255 | FJ1427_P035MP02E04 (VHH, soluble VHH in periplasmic extract; also called clone nr) VHH: EVQLVESGGGLVQAGGSLRLSCAASGGTFSSYAMGWFRQAPGKEREFVAATTRGGGRTMYAVSTEGRFTCSRDNAKNTVYLQMNSLKPKDTAIYYCAAMTSYYSGTYYPDSSDFDIWGQGTQVTVSS
26 | 0.00255 | 0.424 | FJ1427_P035MP02C04 (VHH, soluble VHH in periplasmic extract; also called clone nr) VHH: QVQLVESGGGLVQPGGSLELSCAASGFTFSNYAMSWVRQAPGKGLEWVSSITGFGRGTDYADSVKGRFTISRDNDKNTLYLQMNSLKPEDTAVYYCARYSSSTYYPPTPARGRDYRGQGTQVTVSS
27 | 0.00293 | 0.197 | FJ1427_P035MP02G03 (VHH, soluble VHH in periplasmic extract; also called clone nr) VHH: QVQLVESGGGLVQPGGSLGLSCAASGFTFSNYAMSWVRQAPGKGLEWVASITGFGRGTDYADSVKGRFTVSRDNAKNTLYLQMNSLKPEDTAVYYCAKYSSSTYYPPTPARGRDYRGQGTQVTVSS
28 | 0.0046 | 0.125 | FJ1427_P035MP02B06 (VHH, soluble VHH in periplasmic extract; also called clone nr) VHH: QVQLVESGGGLVQPGESLGLSCAASGFTFSNYAMSWVRQAPGKGLEWVSSITGAGRGTDYADSVKGRFTISRDNAKNTLYLQMNSLKPEDTAVYYCAKYSSGTYYPPTPVRGTDYRGQGTQVTVSS
